{"source": "paper PMC3556358", "origin": "cited, not measured here", "target": "insulin receptor (Homo sapiens) (UniProt P06213)", "sequence (P06213 763-1382)": "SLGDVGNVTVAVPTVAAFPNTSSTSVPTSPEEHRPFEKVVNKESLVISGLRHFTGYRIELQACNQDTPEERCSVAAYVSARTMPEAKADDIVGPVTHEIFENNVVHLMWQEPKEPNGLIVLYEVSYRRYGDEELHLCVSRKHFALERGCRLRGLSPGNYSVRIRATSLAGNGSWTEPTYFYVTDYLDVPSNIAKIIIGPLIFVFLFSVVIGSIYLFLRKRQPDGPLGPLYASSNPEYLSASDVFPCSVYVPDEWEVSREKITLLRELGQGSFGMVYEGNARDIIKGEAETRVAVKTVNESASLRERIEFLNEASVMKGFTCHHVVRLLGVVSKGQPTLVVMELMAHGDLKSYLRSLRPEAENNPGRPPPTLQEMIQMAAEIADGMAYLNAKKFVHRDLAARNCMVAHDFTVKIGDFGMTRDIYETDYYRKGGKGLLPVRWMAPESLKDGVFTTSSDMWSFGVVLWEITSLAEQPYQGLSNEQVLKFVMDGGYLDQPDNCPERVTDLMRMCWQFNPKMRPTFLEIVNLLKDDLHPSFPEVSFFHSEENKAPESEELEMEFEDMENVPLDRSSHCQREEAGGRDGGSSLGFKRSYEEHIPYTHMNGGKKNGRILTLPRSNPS"}
{"substance": "insulin (from UniProt P01308)", "values": [{"measurement": "Kd", "value": 0.3, "unit": "nM"}]}
